From US7049398B1, “Melanocortin metallopeptide constructs, combinatorial libraries and applications” (Palatin Technologies, Inc., priority 1999, dated 2006)
Where no end group is shown, it is not given here. [ ]: non-standard residue; d: D form. The star is where a group is joined. 2Nal = N[C@@H](Cc1ccc2ccccc2c1)C(=O)O; Hydrocinnamoyl = O=C(CCc1ccccc1)*; Aic = NC1(C(=O)O)Cc2ccccc2C1; Heptanoyl = CCCCCCC(=O)*; Nle = CCCC[C@H](N)C(=O)O; βAla = NCCC(=O)O

Assays:
hMC4-R = target: T1, hMC4-R (Homo sapiens, UniProt P32245); test: Competitive inhibition binding assay, 125I-NDP-alpha-MSH, hMC4-R membranes; conditions: 0.4 nM 125I-NDP-alpha-MSH
T1 construct: expressed in transfected cells; host or cells: 293 cells
Procedure: (§1) Representative Peptides of this Invention. Representative peptides of this invention were made using library and synthesis methods described herein, and selected peptides were tested using a binding assay. […] The peptides were synthesized using conventional peptide synthesis methods, and were complexed with rhenium using the methods described herein.
(§2) The competitive inhibition binding assay was conducted using membranes prepared from hMC4-R and B-16 mouse melanoma cells (containing MC1-R) using 0.4 nM ^125I-NDP-alpha-MSH (New England Nuclear, Boston, Mass., USA) in 50 mM HEPES buffer containing 1 mM MgCl2, 2 mM CaCl2, and 5 mM KCl, at pH 7.2. The assay tube also contained a chosen concentration of the test peptide of this invention, complexed to a rhenium metal ion as indicated, for determining its efficacy in inhibiting the binding of ^125I-NDP-alpha-MSH to its receptor. Non-specific binding was measured by complete inhibition of binding of ^125I-NDP-alpha-MSH in the assay with the presence of 1 μM alpha-MSH. Incubation was for 90 minutes at room temperature, after which the assay mixture was filtered and the membranes washed three times with ice cold buffer. The filter was dried and counted in a gamma counter for remaining radioactivity bound to the membranes. 100% specific binding was defined as the difference in radioactivity (cpm) bound to cell membranes in the absence and presence of 1 μM alpha-MSH. The cpm obtained in presence of test compounds were normalized with respect to 100% specific binding to determine the percent inhibition of ^125I-NDP-alpha MSH binding. […]

[1] = target: T2, MC1-R (B-16 mouse melanoma cells) (Mus musculus, UniProt Q01727); test: Competitive inhibition binding assay, 125I-NDP-alpha-MSH, B-16 mouse melanoma cell membranes; conditions: 0.4 nM 125I-NDP-alpha-MSH
T2 construct: B-16 mouse melanoma cells (containing MC1-R); endogenous in cells; host or cells: B-16 mouse melanoma cells
Procedure: as §1, §2

[2] = test system: Human MC4-R or B-16 cells; test: cAMP stimulation assay in absence and presence of alpha-MSH; assay type: cell-based, human; mouse; conditions: 1 h 37° C., 0.2 mM IBMX
Procedure: For selected peptides of this invention, a cAMP assay was also performed. Human MC4-R or B-16 cells were grown to confluence in 96 well plates (plating approximately 250,000 cells per well). Identical sets of cells in triplicate were treated with 0.2 mM isobutylmethylxanthine (IBMX) and the chosen concentration of the rhenium metal ion-complexed peptide and the rhenium metal ion-complexed peptide in the presence of 20 nM alpha-MSH. Cells similarly treated but with only 20 nM alpha-MSH served as positive control. A buffer blank, as a negative control, was also included. Incubation was for one hour at 37° C. after which the medium was aspirated and the cells extarted with 150 microliters of HCl. Total cAMP accumulated in 100 microliters of this solution was quantitated using a commercially available low pH cAMP assay kit (R&D Systems) by the procedure specified by the kit supplier. […] The rhenium metal ion-complexed peptide showing cAMP accumulation in the same range as or higher than the positive control (buffer blank in the presence of alpha-MSH) are considered to be agonist ligands. The rhenium metal ion-complexed peptide showing accumulation in the same range as the negative control (buffer blank in the absence of alpha-MSH) are ineffective at the test concentration if the result is similar to the positive control where alpha-MSH is also present in the assay. The rhenium metal ion-complexed peptide showing accumulation in the same range as the negative control are considered to be antagonists if there is inhibition in cAMP when alpha-MSH is present in the assay. Values above the positive control are due to potent agonism, experimental variance or synergistic agonistic effects of rhenium metal ion-complexed peptide and alpha-MSH. […]

[3] = Conc. cut off 1 μM test peptide
[4] = 1 μM test compound + 20 nM alpha-MSH
[5] = Conc. cut off 10 μM, hMC4-R membranes
[6] = Conc. cut off 10 μM, B-16 mouse melanoma cell membranes
[7] = 10 μM test compound + 20 nM alpha-MSH
[8] = Conc. cut off 1 μM, hMC4-R membranes
[9] = Conc. cut off 1 μM, B-16 mouse melanoma cell membranes

T2 sequence (Q01727 whole entry): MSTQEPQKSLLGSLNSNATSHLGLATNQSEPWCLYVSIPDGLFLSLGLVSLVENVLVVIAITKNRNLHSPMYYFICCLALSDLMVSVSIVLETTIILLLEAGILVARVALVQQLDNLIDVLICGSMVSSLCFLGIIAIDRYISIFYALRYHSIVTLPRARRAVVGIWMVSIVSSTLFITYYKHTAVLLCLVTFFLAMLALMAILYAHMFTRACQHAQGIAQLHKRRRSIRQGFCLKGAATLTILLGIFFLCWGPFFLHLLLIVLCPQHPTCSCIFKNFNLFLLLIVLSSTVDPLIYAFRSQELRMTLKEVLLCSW
T1 sequence (P32245 whole entry): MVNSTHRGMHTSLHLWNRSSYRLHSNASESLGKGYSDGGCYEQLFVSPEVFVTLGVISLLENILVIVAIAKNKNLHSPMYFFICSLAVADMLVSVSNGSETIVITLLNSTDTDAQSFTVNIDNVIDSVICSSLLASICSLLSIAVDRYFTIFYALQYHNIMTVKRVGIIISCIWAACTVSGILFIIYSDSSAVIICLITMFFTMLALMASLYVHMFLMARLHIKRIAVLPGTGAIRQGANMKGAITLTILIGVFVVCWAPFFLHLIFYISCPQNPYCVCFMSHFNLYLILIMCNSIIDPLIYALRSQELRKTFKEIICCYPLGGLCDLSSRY

Substance | % Inhibition MC4-R (hMC4-R; [3]) [%] | % Inhibition MC1-R (B-16) [1, 3] [%] | % Inhibition MC4-R (hMC4-R; [5]) [%] | % Inhibition MC1-R (B-16) [1, 6] [%] | further results
PL-1842: metallopeptide of Table 1 (Ac-[Nle]AHRFWC-NH2; also: ReO[V] complex) | 2 | 27 |  |  | cAMP Accumulation, Presence of α-MSH [2, 4]: 76 pmol/mL; cAMP Accumulation, Absence of α-MSH ([2]; 1 μM test compound): 25 pmol/mL
PL-1751: metallopeptide of Table 1 (Ac-HXRWC-NH2; not fully specified (residue 2); printed as Ac-L-His-L-(N-2′naphthalene)Phe-L-Arg-L-Trp-L-Cys-NH2; also: ReO[V] complex) | 70 | 78 |  |  | cAMP Accumulation, Presence of α-MSH [2, 4]: 96 pmol/mL; cAMP Accumulation, Absence of α-MSH ([2]; 1 μM test compound): 71 pmol/mL
PL-1346: metallopeptide of Table 1 (Hydrocinnamoyl-HRCW-NH2; also: ReO[V] metal complex) |  |  | 77 | 86 | cAMP Accumulation, Presence of α-MSH [2, 7]: 76 pmol/mL; cAMP Accumulation, Absence of α-MSH ([2]; 10 μM test compound): 3 pmol/mL
PL-1265: metallopeptide of Table 1 (Ac-EHGRWC-NH2; also: ReO[V] metal complex) |  |  |  |  | % Inhibition MC4-R (hMC4-R; [8]): 67%; % Inhibition MC1-R (B-16) [1, 9]: 34%; cAMP Accumulation, Presence of α-MSH [2, 4]: 127 pmol/mL; cAMP Accumulation, Absence of α-MSH ([2]; 1 μM test compound): 3 pmol/mL
PL-1364 (Ac-WFHCR-NH2; also: ReO[V] metal complex) |  |  | 72 | 74 | 
PL-1595 (Ac-[Nle]AH[Aic]RCW-NH2; also: ReO[V] metal complex) | 3 | 60 |  |  | 
PL-1360 (Ac-RWFCH-NH2; also: ReO[V] metal complex) |  |  | 62 | 57 | 
PL-808 (Ac-HWCW-NH2; also: ReO[V] metal complex) |  |  |  |  | % Inhibition MC4-R (hMC4-R; [8]): 0%; % Inhibition MC1-R (B-16) [1, 9]: −3%
PL-1513 (Ac-RFFNFC-NH2; also: ReO[V] metal complex) | 18 | 23 |  |  | 
PL-838: metallopeptide of Table 1 (Ac-HFRCW-NH2; also: ReO[V] metal complex) |  |  | 0 | 35 | cAMP Accumulation, Presence of α-MSH [2, 7]: 53 pmol/mL; cAMP Accumulation, Absence of α-MSH ([2]; 10 μM test compound): 2 pmol/mL
PL-1406 (Heptanoyl-RFHCW-NH2; also: ReO[V] metal complex) |  |  |  |  | % Inhibition MC4-R (hMC4-R; [8]): 42%; % Inhibition MC1-R (B-16) [1, 9]: 32%
PL-844 (Ac-FGCW-NH2; also: ReO[V] metal complex) |  |  | 2 | 10 | 
PL-1507 (Ac-RFFNCF-NH2; also: ReO[V] metal complex) | 22 | 20 |  |  | 
PL-1504 (Ac-RF[2Nal]NCF-NH2; also: ReO[V] complex) | 21 | 36 |  |  | 
PL-1511 (Ac-RFFNCAF-NH2; also: ReO[V] metal complex) | 26 | 21 |  |  | 
PL-1348 (Ac-RHFCW-NH2; also: ReO[V] metal complex) |  |  | 51 | 57 | 
PL-1114 ([βAla]HFCW-NH2; also: ReO[V] metal complex) |  |  | 10 | 2 | 
PL-847 (Ac-FHGCW-NH2; also: ReO[V] metal complex) |  |  | 6 | −6 | 
PL-1112 (HFCW-NH2; also: ReO complex) |  |  | 8 | 0 | 
PL-1510 (Ac-RFFCNAF-NH2; also: ReO[V] metal complex) | 31 | 21 |  |  | 
PL-810 (Ac-H[2Nal]CW-NH2; also: ReO[V] complex) |  |  |  |  | % Inhibition MC4-R (hMC4-R; [8]): −1%; % Inhibition MC1-R (B-16) [1, 9]: −2%
PL-1450 (Ac-[Nle]AHFRCW-NH2; also: ReO[V] metal complex) | 66 | 73 |  |  | 
PL-1862 (Ac-FFC[3‑Abz]K-NH2; also: ReO[V] complex) | −7 | 17 |  |  | 
PL-1366 (Ac-HFWCR-NH2; also: ReO[V] metal complex) |  |  | 64 | 78 | 
